# Data reported in PMC6797804, “Histone H3K23-specific acetylation by MORF is coupled to H3K14 acylation” (Nature Communications, 2019).
# Numbering of substitutions follows the chain as printed. Ends that are not written are not given here. * marks the point of attachment. Crotonyl(E) = C/C=C/C(=O)*; Butyryl = CCCC(=O)*
# T1: MORF DPF domain (residues 211–322) F287A (human, UniProt Q8WYB5 211-322, F287A)
# T1 sequence (looked up): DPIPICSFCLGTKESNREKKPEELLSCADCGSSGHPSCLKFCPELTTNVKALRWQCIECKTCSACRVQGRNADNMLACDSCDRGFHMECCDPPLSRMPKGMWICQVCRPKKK
# T2: MORF DPF domain (residues 211–322), wild type (human, UniProt Q8WYB5 211-322)
# T2 construct: MORF (KAT6B) double PHD finger (DPF), residues 211–322; The methods say the GST tag was either cleaved with thrombin or left on; also called WT MORFDPF; DPF domain of MORF; source: E. coli Rosetta2 (DE3) pLysS, purified (glutathione Sepharose 4B, size exclusion); unlabeled or 15N-labeled
# T2 sequence (looked up): T1 sequence (looked up) with A77F
# T3: MORF DPF domain (residues 211–322) F218A (human, UniProt Q8WYB5 211-322, F218A)
# T3 construct: MORF (KAT6B) double PHD finger (DPF), residues 211–322; also called MORFDPF F218A mutant; source: E. coli Rosetta2 (DE3) pLysS, purified (glutathione Sepharose 4B, size exclusion)
# T3 sequence (looked up): T1 sequence (looked up) with F8A, A77F
# B1: histone H3K14cr peptide (residues 1–19 of H3) (peptide, UniProt P68431 2-20, looked up)
# peptide: ARTKQTARKSTGGK(Crotonyl(E))APRKQ
# notes: histone H3 N-terminal tail, residues 1–19; source: synthetic peptide
# B2: unmodified histone H3 peptide (residues 1–19 of H3) (peptide, UniProt P68431 2-20, looked up)
# peptide: ARTKQTARKSTGGKAPRKQ
# notes: as for B1
# B3: histone H3K14bu peptide (residues 1–19 of H3) (peptide, UniProt P68431 2-20, looked up)
# peptide: ARTKQTARKSTGGK(Butyryl)APRKQ
# notes: as for B1
# Key:
# [1] = target: T1, MORF DPF domain (residues 211–322) F287A; assay: cell-based or functional assay
# [2] = target: T2, MORF DPF domain (residues 211–322), …; assay: other fluorescence titration; tryptophan fluorescence, 25 °C; 0.8–2 µM MORFDPF in PBS pH 6.5 with 5 mM DTT, increasing concentrations of H3 peptides (residues 1–19); excitation 295 nm; conditions: both partners purified
# [3] = target: T3, MORF DPF domain (residues 211–322) F218A; assay: as above; conditions: both partners purified
# [4] = target: T1, MORF DPF domain (residues 211–322) F287A; assay: NMR titration; 1H,15N HSQC at 298 K; H3 peptides (residues 1–19) titrated into 0.1–0.25 mM 15N-labeled WT or mutated MORFDPF in 1×PBS pH 6.5, 5 mM DTT, 8–10% D2O; conditions: both partners purified
Binder,"HAT activity of the MORFN F287A complex against the wild-type MORFN complex on H3K14cr peptide (residues 1–29), liquid HAT assay [1]",Kd [2],binding result [3],fold decrease in binding against the WT protein [4]
B1,2 fold,700 nM,binds,
B2,,,,~1000 fold
B3,,,binds,
